# Results as given in IntAct's records for PubMed 11864996.
# B1: Forkhead box protein O3 (Homo sapiens), O43524 (parent)
# chain: MAEAPASPAPLSPLEVELDPEFEPQSRPRSCTWPLQRPELQASPAKPSGETAADSMIPEEEDDEDDEDGGGRAGSAMAIGGGGGSGTLGSGLLLEDSARVLAPGGQDPGSGPATAAGGLSGGTQALLQPQQPLPPPQPGAAGGSGQPRKCSSRRNAWGNLSYADLITRAIESSPDKRLTLSQIYEWMVRCVPYFKDKGDSNSSAGWKNSIRHNLSLHSRFMRVQNEGTGKSSWWIINPDGGKSGKAPRRRAVSMDNSNKYTKSRGRAAKKKAALQTAPESADDSPSQLSKWPGSPTSRSSDELDAWTDFRSRTNSNASTVSGRLSPIMASTELDEVQDDDAPLSPMLYSSSASLSPSVSKPCTVELPRLTDMAGTMNLNDGLTENLMDDLLDNITLPPSQPSPTGGLMQRSSSFPYTTKGSGLGSPTSSFNSTVFGPSSLNSLRQSPMQTIQENKPATFSSMSHYGNQTLQDLLTSDSLSHSDVMMTQSDPLMSQASTAVSAQNSRRNVMLRNDPMMSFAAQPNQGSLVNQNLLHHQHQTQGALGGSRALSNSVSNMGLSESSSLGSAKHQQQSPVSQSMQTLSDSLSGSSLYSTSANLPVMGHEKFPSDLDLDMFNGSLECDMESIIRSELMDADGLDFNFDSLISTQNVVGLNVGNFTGAKQASSQSWVPG
# Variants of: B1
# Conditions: with 1433z_human YWHAZ
row,Variant,effect of a mutation on the interaction
1,T32A;S253A;S315A,disrupting interaction
